As a reminder, the AUC(0-t) is exposure summed from dosing to a finite time, without extrapolation to infinity. One may read the Cmax as the highest concentration seen after dosing. As usually defined, the Tmax is the time from dosing to the highest level. One may read the EC50 as the concentration that produces a half-maximal response. One may read the Kd as the equilibrium constant for the complex coming apart. As a reminder, the koff is a measure of how fast the partners let go of each other. Usually kon stands for the rate constant with which the complex forms.

Where two headings read alike, the source gives them in different places.

For data set [1] the following is noted: Exatecan in plasma, 0.25 mg/kg iv infusion 30 min. The method, then:
24 common cynomolgus monkeys aged 3-5 years (half male and half female) were adopted and randomly divided into 4 groups, and each group consisted of 3 female animals and 3 male animals. […] Blood samples were collected until 504 hours after the end of the administration. The major pharmacokinetic parameters, i.e., AUC(0-t), AUC(0-∞), T1/2, Cmax, Tmax, CL, MRT, etc., were calculated from the plasma concentration data with a non-compartmental model using Phoenix WinNonlin® 7.0 software.

A further data set deals with Rat FOLR1 (Rattus norvegicus, UniProt Q9JL02). Put plainly: ELISA species specificity of antibodies. In kind it is binding. As to conditions: coated antigen rat FOLR1. The method, then: (§1) Each antigen was diluted to 1 μg/mL with PBS and added to a microplate (manufacturer: Corning, Catalog No.: 42592) in a volume of 100 μL per well, and the microplate was coated overnight in a refrigerator (2-8° C.). The coating solution was discarded, and 200 μL of a blocking solution (containing 5% skimmed milk powder, prepared from PBS) was added. The microplate was left to stand in an electric thermostatic incubator at 37° C. for 2 h. The blocking solution was discarded, and the microplate was washed 3 times with 0.05% PBST. Antibody dilutions at different concentrations (at an initial concentration of 6 μg/mL, 3-fold dilution, 8 concentration gradients in total, diluted with PBS) were added at 100 μL per well. The microplate was left to stand in the electric thermostatic incubator at 37° C. for 2 h. The antibody dilutions were discarded, and the microplate was washed 8 times with 0.05% PBST and patted dry. Anti-Human Kappa Light Chains (Bound and Free) peroxidase antibody Produced in goat (manufacturer: sigma, Catalog No.: A7164-1ML) diluted in a 1:10000 ratio was added at 100 µL/well. The microplate was left to stand in the electric thermostatic incubator at 37° C. for 1 h. […] The microplate was read on SpectraMax Plus Absorbance Microplate Reader with an absorption light wavelength of 450 nm.
Chain of Rat FOLR1 (Q9JL02 20-255): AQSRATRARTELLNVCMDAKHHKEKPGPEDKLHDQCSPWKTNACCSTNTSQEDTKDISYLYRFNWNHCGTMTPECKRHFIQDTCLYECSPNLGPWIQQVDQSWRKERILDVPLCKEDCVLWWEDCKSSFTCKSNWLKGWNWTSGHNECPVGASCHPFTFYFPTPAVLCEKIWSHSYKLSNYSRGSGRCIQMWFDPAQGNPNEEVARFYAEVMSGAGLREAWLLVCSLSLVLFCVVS
A general note: In an ELISA, binding on a coated surface is turned into a signal by an enzyme label.

Another data set deals with Mouse FOLR1 (Mus musculus, UniProt P35846). In words: ELISA species specificity of antibodies. Type of data set: binding. As to conditions: coated antigen mouse FOLR1. The method, then:
as §1

Data set [2] deals with T1, antigen FRα-His (human FRα extracellular domain with C-terminal 8×HIS tag) (human, UniProt P15328 25-233).
T1 construct: The entry still carries the N-terminal signal peptide; Expressed in CHO-K1 cells; also called FOLR1
T1 sequence (P15328 other isoform, or with tags, fused parts or gaps limits assumed): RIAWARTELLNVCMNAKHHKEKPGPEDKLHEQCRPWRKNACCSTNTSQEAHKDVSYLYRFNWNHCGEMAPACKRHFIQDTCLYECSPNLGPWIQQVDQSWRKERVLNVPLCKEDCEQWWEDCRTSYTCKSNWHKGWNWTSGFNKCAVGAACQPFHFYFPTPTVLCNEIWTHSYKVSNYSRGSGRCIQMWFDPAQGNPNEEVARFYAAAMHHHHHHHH
Put plainly: ELISA, antigen coated at 1 µg/mL, antibody titrated. On the procedure: (§2) Each antigen was diluted to 1 μg/mL with PBS and added to a microplate (manufacturer: Corning, Catalog No.: 42592) in a volume of 100 μL per well, and the microplate was coated overnight in a refrigerator (2-8° C.). The coating solution was discarded, and 200 μL of a blocking solution (containing 5% skimmed milk powder, prepared from PBS) was added. The microplate was left to stand in an electric thermostatic incubator at 37° C. for 2 h. The blocking solution was discarded, and the microplate was washed 3 times with 0.05% PBST. Antibody dilutions at different concentrations (at an initial concentration of 6 μg/mL, 3-fold dilution, 8 concentration gradients in total, diluted with PBS) were added at 100 μL per well. The microplate was left to stand in the electric thermostatic incubator at 37° C. for 2 h. The antibody dilutions were discarded, and the microplate was washed 8 times with 0.05% PBST and patted dry. Anti-Human Kappa Light Chains (Bound and Free) peroxidase antibody Produced in goat (manufacturer: sigma, Catalog No.: A7164-1ML) diluted in a 1:10000 ratio was added at 100 µL/well. The microplate was left to stand in the electric thermostatic incubator at 37° C. for 1 h. The antibody dilutions were discarded, and the microplate was washed 8 times with 0.05% PBST and patted dry. Single-component TMB substrate solution I (manufacturer: Huzhou InnoReagents Co., Ltd.; Catalog No.: TMB-S-001) was added at 100 μL/well, and the microplate was left to stand in the electric thermostatic incubator at 37° C. for 10 min in the dark. 0.1 M H₂SO₄ was added at 100 μL/well to terminate the reaction.

For data set [3], the target named is T2, Cynomolgus monkey FOLR1 (manufacturer: Acro, Catalog No.: F01-C52H8) (cynomolgus monkey, UniProt A0A2K5U044 25-233).
T2 construct: Bought reagent
T2 sequence (A0A2K5U044 entry or part of it): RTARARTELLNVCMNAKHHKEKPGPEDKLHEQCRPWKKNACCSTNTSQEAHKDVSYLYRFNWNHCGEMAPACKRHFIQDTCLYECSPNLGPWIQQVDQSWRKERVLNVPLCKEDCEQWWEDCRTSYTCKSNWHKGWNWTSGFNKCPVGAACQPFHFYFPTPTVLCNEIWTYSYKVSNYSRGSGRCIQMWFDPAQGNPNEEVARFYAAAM
The data set is described as above. The method, then: as §2

The target of data set [4] is T3, Rat FOLR1 (manufacturer: sino Biological, Catalog No.: 81073-R08NO0507) (rat, UniProt G3V8M6 25-232).
T3 construct: Bought reagent
T3 sequence (G3V8M6 entry or part of it limits assumed): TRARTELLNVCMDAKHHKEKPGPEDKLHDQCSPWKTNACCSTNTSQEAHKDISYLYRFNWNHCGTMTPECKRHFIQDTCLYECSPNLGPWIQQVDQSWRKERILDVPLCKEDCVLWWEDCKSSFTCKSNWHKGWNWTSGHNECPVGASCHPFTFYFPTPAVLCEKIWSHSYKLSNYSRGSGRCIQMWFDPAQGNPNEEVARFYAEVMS
In words: ELISA, antigen coated at 1 µg/mL. On the procedure: as §2

Data set [5] has as its target T4, Mouse FOLR1 (manufacturer: Acro, Catalog No.: F01-M5225) (mouse, UniProt P35846 25-232).
T4 construct: Bought reagent
In words: ELISA, antigen coated at 1 µg/mL. The method, then: as §2

In data set [6] the target is T5, FOLR3 (purchased from R&D, Catalog No. 5319-FR-050) (UniProt P41439 23-245, limits assumed).
T5 construct: Bought reagent; also called folate receptor γ
T5 sequence (P41439 23-245 limits assumed): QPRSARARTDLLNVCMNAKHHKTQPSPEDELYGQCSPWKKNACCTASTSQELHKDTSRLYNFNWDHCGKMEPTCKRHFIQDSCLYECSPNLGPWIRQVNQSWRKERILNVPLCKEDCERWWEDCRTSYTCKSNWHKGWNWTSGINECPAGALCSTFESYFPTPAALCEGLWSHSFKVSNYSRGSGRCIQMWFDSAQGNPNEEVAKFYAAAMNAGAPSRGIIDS
Put plainly: SPR (Biacore T200), antibody captured on Protein A chip, antigen as analyte. The method, then: (§3) A Protein A chip was used for the assay.
(§4) Experiment results were analyzed using data analysis software Evaluation Software 3.1. The sensing signals acquired from the experimental flow channels for the samples were subjected to double subtraction (minus values of reference flow channels and blank control), and the fitting was performed using a “1:1” kinetic model to obtain the kinetic parameters (Ka: association rate; Kd: dissociation rate; KD: equilibrium dissociation constant) for the binding of each sample to the antigens.

Data set [7] concerns the target T6, FOLR2 (purchased from Acro, Catalog No. FO2-H5223) (UniProt P14207 17-228).
T6 construct: Bought reagent; also called folate receptor β
Described as above. On the procedure: as §3, §4

Data set [8] concerns the target T1, antigen FRα-His (human FRα …). In words: SPR (Biacore T200), antibody captured on Protein A chip, antigen as analyte, 1:1 model. The method, then:
as §3, §4

Data set [9] shares this target. In words: SPR (Biacore T200), antibody captured on Protein A chip, antigen as analyte, 1:1 model; Table 7 experiment (antigen specificity, FOLR1/FOLR2/FOLR3). The method, then: as §3, §4
Data set [10] concerns the target T7, folate receptor α (FRα) on FRα-positive cells (JEG-3, MCF-7) (UniProt P15328 25-234, limits assumed).
T7 construct: whole, on cells; also called JEG-3 cells; JEG3 cells
Put plainly: flow cytometry on JEG-3 cells. Background: A flow cytometer gives signals particle by particle.

Data set [11] has as its target T1, antigen FRα-His (human FRα …). In words: SPR (Biacore T200), drug captured on Protein A chip, FRα-His as analyte, 1:1 model. The method, then: as §3, §4

T6 sequence (P14207 17-228 limits assumed): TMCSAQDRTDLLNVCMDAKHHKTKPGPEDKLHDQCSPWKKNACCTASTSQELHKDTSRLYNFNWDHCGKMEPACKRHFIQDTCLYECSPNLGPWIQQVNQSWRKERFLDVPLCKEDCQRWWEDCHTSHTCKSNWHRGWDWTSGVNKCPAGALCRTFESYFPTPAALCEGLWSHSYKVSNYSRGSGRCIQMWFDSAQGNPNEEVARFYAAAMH
T4 sequence (P35846 25-232 limits assumed): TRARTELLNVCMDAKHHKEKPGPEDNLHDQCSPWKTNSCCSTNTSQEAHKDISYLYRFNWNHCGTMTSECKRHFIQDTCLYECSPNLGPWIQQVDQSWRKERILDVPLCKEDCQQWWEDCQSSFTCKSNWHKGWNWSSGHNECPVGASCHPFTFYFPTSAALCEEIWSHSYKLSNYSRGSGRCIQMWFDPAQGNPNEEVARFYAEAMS
Chain of Mouse FOLR1 (P35846 25-232): as the sequence (P35846 25-232 limits assumed) above
T7 sequence (P15328 25-234 limits assumed): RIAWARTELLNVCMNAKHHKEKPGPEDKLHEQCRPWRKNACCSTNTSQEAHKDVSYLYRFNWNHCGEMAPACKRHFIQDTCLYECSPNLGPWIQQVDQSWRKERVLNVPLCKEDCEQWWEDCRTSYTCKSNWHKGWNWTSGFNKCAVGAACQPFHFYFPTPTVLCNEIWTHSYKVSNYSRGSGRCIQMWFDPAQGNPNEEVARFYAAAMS

For “(1S,9S)-1-amino-9-ethyl-5-fluoro-9-hydroxy-4-methyl-1,2,3,9,12,15-hexahydro-10H,13H-benzo[3′,4′:6,7]indoline[1,2-b]quinoline-10,13-dione methanesulfonate [Exatecan Mesylate]”, in data set [1] (female), the “AUC(0-t)” value came out at 155.05 ng·h/mL, the Cmax was determined as 237.567 ng/mL and the time to peak (Tmax) came out at 30 min. Moreover, in data set [1] (male), the exposure AUC(0-t) was determined as 231.77 ng·h/mL, the Cmax was 349.808 ng/mL and the time of peak concentration (Tmax) was found to be 30 min.
For the molecule “huMOV19: control antibody huMOV19, heavy chain SEQ ID NO: 34, light chain SEQ ID NO: 35”, the half-maximal effective concentration (EC50) result in the data set with Rat FOLR1 and with Mouse FOLR1 was “— (“—” indicates no binding)” each time.

B1: control antibody huMOV19 (antibody, human IgG1, kappa, V domains shown)
VH: QVQLVQSGAEVVKPGASVKISCKASGYTFTGYFMNWVKQSPGQSLEWIGRIHPYDGDTFYNQKFQGKATLTVDKSSNTAHMELLSLTSEDFAVYYCTRYDGSRAMDYWGQGTTVTVSS
VL: DIVLTQSPLSLAVSLGQPAIISCKASQSVSFAGTSLMHWYHQKPGQQPRLLIYRASNLEAGVPDRFSGSGSKTDFTLTISPVEAEDAATYYCQQSREYPYTFGGGTKLEIKR
For B1, the EC50 in data set [2] was found to be 0.09 µg/mL; in [3] it was 0.087 µg/mL. Besides, the binding result in data set [4] is listed as “no binding (tested: antibody up to 6 µg/mL)”; in data set [5] it was “no binding (tested: antibody up to 6 µg/mL)”; in data set [6] it was “no binding (tested: antigen up to 100 nM)”; in data set [7], “no binding (tested: antigen up to 100 nM)”. The same molecule returned a dissociation constant (Kd) in data set [8] of 0.468 nM.

B2: Antibody 1 (humanized anti-FRα antibody) (antibody, human IgG1, kappa, V domains shown)
VH: QVQLVQSGVEVKKPGASVKVSCKASGYSFTGYFMNWVRQAPGQGLEWIGRIHPYDGDTFYNQNFKDKATLTVDKSTTTAYMELKSLQFDDTAVYYCTRYDGSRAMDYWGQGTTVTVSS
VL: EIVLTQSPATLSLSPGERATLSCKASQSVSFAGTSLMHWYQQKPGQAPRLLIYRASNLEAGVPARFSGSGSKTDFTLTISSLEPEDFAVYYCQQSREYPYTFGGGTKVEIKR
notes: also called anti-FRα antibody No. 1
For B2, the EC50 was found to be 0.069 µg/mL in [2], 0.066 µg/mL in data set [3] and 1.41 nM in data set [10]. The binding result is reported as “no binding (tested: antibody up to 6 µg/mL)” in [4], “no binding (tested: antibody up to 6 µg/mL)” in [5], “no binding (tested: antigen up to 100 nM)” in [6] and “no binding (tested: antigen up to 100 nM)” in data set [7]. Also, the equilibrium dissociation constant (Kd) was 0.703 nM in data set [9] and 0.287 nM in data set [11]. In [11], this molecule registered a dissociation rate constant (koff) of 0.000293 s⁻¹. Also, the on-rate constant (kon) in [11] stood at 1.02e+06 M⁻¹ s⁻¹.
